The values that follow come from US9820934B2, “Acid containing lipid formulations” (CAMURUS AB, priority 2007, dated 2017).

The nature of this series: Dissolution of GLP-1 in lipid formulation containing P80 and MeSulf (visual: homogenous, transparent). The format is physicochemical. To be noted: SPC/GDO/P80/EtOH/PG/MeSulf=41.0/41.0/5.0/3.0/10.0/0.5 wt %; nominal loads 3, 4, 5 and 6 wt % GLP-1(0); room temperature, 1-3 days. The text has this: The lipid composition was the following: SPC/GDO/P80/EtOH/PG/MeSulf=41.0/41.0/5.0/3.0/10.0/0.5 wt %.

For the substance “GLP-1(7-36)amide, acetate salt [GLP-1(Ac)]”, the “Dissolution of GLP-1 in the lipid formulation” value is reported as “complete dissolution”.
